Patent publication US20230365705A1 (DYNAMICURE BIOTECHNOLOGY, published 2023)
Changes are numbered by the printed parent chain. Where two headings read alike, the source gives them in different places. One block for each binder: values may come before it.

What was measured:
[1] = target: T1, Human CD93 on cells (human CD93 expressing CHO cells; HUVEC, U937 and KG1a cells) (human, UniProt Q9NPY3 22-652); assay: flow cytometry, CD93 expressing CHO cells, antibody 10 ug/ml, FITC-A
T1 construct: whole, on cells; also called hCD93 expressing CHO cells; hCD93 CHO cells
T1 sequence (looked up): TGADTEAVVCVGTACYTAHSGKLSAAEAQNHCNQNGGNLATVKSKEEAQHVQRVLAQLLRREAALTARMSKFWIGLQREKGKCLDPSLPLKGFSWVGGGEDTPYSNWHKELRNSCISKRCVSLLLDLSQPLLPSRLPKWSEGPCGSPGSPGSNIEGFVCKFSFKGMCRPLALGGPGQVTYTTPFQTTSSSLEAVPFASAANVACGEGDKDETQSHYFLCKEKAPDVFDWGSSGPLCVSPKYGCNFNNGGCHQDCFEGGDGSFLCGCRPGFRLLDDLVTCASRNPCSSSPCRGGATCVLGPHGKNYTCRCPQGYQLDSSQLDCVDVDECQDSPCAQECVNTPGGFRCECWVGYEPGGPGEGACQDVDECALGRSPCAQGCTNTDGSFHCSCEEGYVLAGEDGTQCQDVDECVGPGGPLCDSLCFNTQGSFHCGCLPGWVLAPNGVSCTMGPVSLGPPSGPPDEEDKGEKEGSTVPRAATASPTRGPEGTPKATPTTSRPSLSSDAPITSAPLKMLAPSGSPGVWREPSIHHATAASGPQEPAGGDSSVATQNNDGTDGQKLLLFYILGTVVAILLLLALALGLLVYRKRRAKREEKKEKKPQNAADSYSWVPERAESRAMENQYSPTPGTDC
Method: Human CD93 expressing CHO cells were detached by incubation with TrypLE reagents (Thermos Fisher), which preserves the integrity of CD93 on the cell surface. […] After washing with FACS buffer twice, the samples were acquired in NovoCyte Flow Cytometer and analyzed by NovoExpress software.

[2] = target: T2, Human CD93 recombinant protein (Sino Biological Inc, Catalog #12589-H08H) (human, UniProt Q9NPY3 22-580); assay: BLI (Octet QKe), biotinylated human CD93 on streptavidin biosensors
T2 construct: Biotinylated (EZ-LINK NHS-PEG4 biotin) in the BLI assays; also called hCD93; His-tagged human CD93
T2 sequence (looked up): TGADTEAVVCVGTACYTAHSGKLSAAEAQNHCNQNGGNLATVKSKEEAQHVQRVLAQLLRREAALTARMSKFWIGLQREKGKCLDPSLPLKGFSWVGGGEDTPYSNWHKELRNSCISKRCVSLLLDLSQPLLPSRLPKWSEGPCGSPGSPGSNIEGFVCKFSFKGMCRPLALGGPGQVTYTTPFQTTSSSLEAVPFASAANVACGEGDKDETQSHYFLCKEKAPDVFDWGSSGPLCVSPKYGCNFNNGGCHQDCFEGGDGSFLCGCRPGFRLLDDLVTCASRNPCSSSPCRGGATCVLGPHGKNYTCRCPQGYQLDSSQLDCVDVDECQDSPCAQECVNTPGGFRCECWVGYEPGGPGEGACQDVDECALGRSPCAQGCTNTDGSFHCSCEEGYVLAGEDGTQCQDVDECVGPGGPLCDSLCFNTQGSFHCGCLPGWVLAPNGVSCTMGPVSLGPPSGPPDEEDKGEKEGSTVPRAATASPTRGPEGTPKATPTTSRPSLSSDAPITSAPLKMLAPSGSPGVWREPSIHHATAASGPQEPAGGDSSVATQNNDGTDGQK
Method: The binding affinity of anti-CD93 antibodies were determined with bio-layer interferometry using Octet QKe (Fortebio). Human CD93 recombinant protein (Sino Biological Inc, Catalog #12589-H08H) or cynomolgus CD93 protein (made in-house) were biotinylated using EZ-LINK NHS-PEG4 biotin (Thermo Fisher Scientific). Streptavidin biosensors (Fortebio) were used to load biotinylated CD93 protein (300 seconds in 5 μg/ml). The baseline was stabilized for 60 seconds in 1× kinetics buffer (Fortebio) before anti-CD93 antibodies at a serial dilution were allowed to associate for 300 seconds with captured protein. Then the sensors were dissociated in 1× kinetics buffer for 600 seconds.

[3] = target: T1, Human CD93 on cells (human CD93 …); assay: flow cytometry, CHO cells overexpressing human CD93, antibody 0.01ug, mIgG1 as control, APC-A
[4] = target: T1, Human CD93 on cells (human CD93 …); assay: as above; remark: listed apart in the source

B2: 19E12 (antibody, V domains shown)
VH: QVQLQQSGAELVRPGASVKLSCKASGYTFTDYEMHWVRQTPVHGLEWIGGIDPETGGTAYNQKFKGKATLTADKSSSTAYMELRSLTSEDSAVYYCTRGAWFAYWGQGTLVTVSA
VL: QAVVTQESALTTSPGETVTLTCRSSTGAVTTSNSANWVQEKPDHLFTGLIGGTNNRAPGVPARFSGSLIGDKAALTITGAQTEDEAIYFCALWYNNHFVFGGGTKLTVL
notes: Mouse hybridoma monoclonal antibody
binding result [1]: binds | binding result [2]: binds

B3: 17E6 (antibody, V domains shown)
VH: EVQLQQSGPELVKPGASVKMSCKASGYTFTSYVIHWVKQKPGQGLEWIGYINPYSDYTQYNEKFKGKATLTSDKSSSTAYMELSSLTSEDSAVYSCARRADGNPYAMDYWGQGTSVTVSS
VL: DIVMTQSHKFMSTSVGDRVSTTCKASQDVSTAVVWYQQKPGQSPKLLIYSASYRYTGVPDRFTGSGSGTDFTFTITSVQAEDLAVYYCQQHYSTPFTFGSGTKLEIK
notes: as for B2
binding result [1]: binds | binding result [2]: binds

B4: 20C7 (antibody, V domains shown)
VH: B3 VH with K13N, S31A, I34M, N52F, S55N, Y57G, Q59E, S95Y, A100T, A106T
VL: B3 VL with T21I, V34A, Y49H, S65R, T76S
notes: as for B2
binding result [1]: binds | binding result [2]: binds

B5: 16G9 (antibody, V domains shown)
VH: EVQLQQSGPELVKPGASVKMSCKASGYTFTDYYMNWVKQSHGKSLEWIGRVNPNNGGKTYNQKFKGKATLTVDKSLSTAYMQLNSLTSEDSAVYYCARWRLRPVDYGMDYWGQGTSVTVSS
VL: DIVLTQSPASLAVSLGQRATISCRASQSVSTSSYSYMHWYQQKPGQPPKLLIKYASNLESGVPARFSGSGSGTDFTLNIHPVEEEDTATYYCQHSWEIPFTFGSGTKLEIK
notes: as for B2
binding result [1]: binds | binding result [2]: binds

B6: humanized 17B10 H1L1 (antibody, mouse IgG1, V domains shown)
VH: QVQLVQSGAEVKKPGSSVKVSCKASGYAFSSYWLNWVRQAPGQGLEWFGRIYPGDGDTDYNGKFKGRVTLTADKSTSTAYMELSSLRSEDTAVYFCVRGDGYWAMDYWGQGTTVTVSS
VL: DIVMTQSPLSLPVTPGEPASISCRFSQSLLHSNGITYLYWYLQKPGQSPQLLIYQMSNLASGVPDRFSGSGSGTDFTLKISRVEAEDVGVYYCAQNLELPWTFGGGTKLEIK
notes: Chimeric Fc: human CH1, mouse IgG1 CH2 and CH3
M2 gate, % of cells [3]: 99%

B8: humanized 17B10 H1L3 (antibody, mouse IgG1, V domains shown)
VH: B6 VH
VL: DIVMTQSPDSLAVSLGERATINCRFSKSLLHSNGITYLYWYQQKPGQPPKLLIYQMSNLASGVPDRFSGSGSGTDFTLTISSLQAEDVAVYYCAQNLELPWTFGGGTKLEIK
notes: as for B6
M2 gate, % of cells [4]: 99.2%

B9: humanized 17B10 H2L3 (antibody, mouse IgG1, V domains shown)
VH: QVQLVQSGAEVVKSGASVKVSCKASGYAFSSYWLNWVRQAPGQGLEWFGRIYPGDGDTDYNGKFKGRVTLIRDTSTSTVYMELTSLTSEDTAVYYCVRGDGYWAMDYWGQGTLVTVSS
VL: B8 VL
notes: as for B6
M2 gate, % of cells [3]: 99.2%

B12: 12H4 (antibody, V domains shown)
VH: EVQLQQSGPELVKPGASVKVSCKASGYTFTDYYIHWVKQRPGQGLEWIGEIYPGSDDAYYNEKFKGKATLTADKSSSTAYMQLSSLTSEDSAVYFCTRETTATAYWGQGTLVTVSA
VL: QIVLTQSPAIMSASPGEKVTITCSASSSVSLIYWFQQKPGTSPKLWIYSTSNLASGVPARFSGSGSGTSYSLTISRMEAEDAATYYCQQRSGYPPTFGGGTKLEIK
notes: as for B2
binding result [1]: binds | binding result [2]: binds

B14: 5H9 (antibody, IgG2a, V domains shown)
VH: QVQLQQSGPDLVKPGASVKISCKASGYAFSTYWMNWVKQRPGKGLEWIGRIFPGDGDANYNGKFKGKATLTADKSSSTAYMQLSSLTSEDSAVYFCTRTGAAYDFDPFPYWGQGTLVTVSA
VL: DIVMTQAAFSNPVTLGTSASISCSSSKSLLHSNGVTYLYWYLQRPGQSPQLLIYRMSNLASGVPDRFSGSGSGTDFTLRISRVEAEDVGIYYCAQMLERPFTFGSGTKLEIK
notes: also called 5H9 mIgG2a
binding result [1]: binds | binding result [2]: binds

Next, values leading:

binding result [1]: binds | binding result [2]: binds
B1: 16B6 (antibody, V domains shown)
VH: QVQLQQSGPELVKPGASVKISCKASGYAFSRSWMNWVKQRPGKGLEWIGWIYPGDGDTNYNGKFKGKATLTADKSSSTAYMQLSSLTSEDSAAYFCARSATLPYWYFDVWGAGTTVTVSS
VL: DIKMTQSPSSMYASLGERVTITCKASQDIKSYLSWYQQKPWKSPKTLIYYATNLADGVPSRFSGSGSGQDYSLTISSLGSDDTATYYCLQHVESPWTFGGGTKLEIK
notes: as for B2

M2 gate, % of cells [3]: 99.5%
B7: humanized 17B10 H3L1 (antibody, mouse IgG1, V domains shown)
VH: QVQLVQSGPEVKKPGESLKISCKASGYAFSSYWLNWVRQMPGKGLEWMGRIYPGDGDTDYNGKFKGQVTISADKSSGTAYLQLSSLKASDTAVYFCVRGDGYWAMDYWGQGTLVTVSS
VL: B6 VL
notes: as for B6

M2 gate, % of cells [4]: 98.2%
B10: humanized 17B10 H2L1 (antibody, mouse IgG1, V domains shown)
VH: B9 VH
VL: B6 VL
notes: as for B6

M2 gate, % of cells [3]: 92.1%
B11: humanized 17B10 H1L2 (antibody, mouse IgG1, V domains shown)
VH: B6 VH
VL: B6 VL with S7T, Q55T
notes: as for B6

binding result [1]: binds | binding result [2]: binds
B13: 19B5 (antibody, V domains shown)
VH: DVNLVESGGGLVKLGGSLKLSCAASGFTFSNYYMSWVRQSPEKRLEWVATISNNGDSTYYLDTVKGRFTISRDSAENTLYLQMSSLISEDTAVYYCTRVGTGFTYWGQGTLVTVSA
VL: DIVLTQSPATLSVTPGDSVSLSCRASQSINNYLHWYQQRSHESPRLLIKFASQSISDIPSRFSGSGSGTDFTLSINSIETEDFGMYFCQQSNSWPLTFGAGTKLELK
notes: as for B2

binding result [1]: binds | binding result [2]: binds
B15: 17A7 (antibody, V domains shown)
VH: B14 VH with D10E, A24G, A58T, N59D, N61D, S77N, T97A, D104E
VL: B14 VL with S26T, N33S, V35I, I90V
notes: as for B2
